# Data: patent publication US20230374087A1, “METHOD TO IMPROVE PROTEIN QUALITY CONTROL” (The Johns Hopkins University, priority 2020, published 2023)
# Numbering of substitutions follows the chain as printed. Names and notes keep the numbering of the source.
# B1: S24E: S24E mutant CHIP overexpressed in neonatal myocytes (protein, UniProt Q9WUD1 1-304, looked up, variant S24E)
# E3 ubiquitin-protein ligase …: MKGKEEKEGGARLGTGGGGSPDKEPSAQELKEQGNRLFVGRKYPEAAACYGRAITRNPLVAVYYTNRALCYLKMQQPEQALADCRRALELDGQSVKAHFFLGQCQLEMESYDEAIANLQRAYSLAKEQRLNFGDDIPSALRIAKKKRWNSIEERRIHQESELHSYLTRLIAAERERELEECQRNHEGHEDDGHIRAQQACIEAKHDKYMADMDELFSQVDEKRKKRDIPDYLCGKISFELMREPCITPSGITYDRKDIEEHLQRVGHFDPVTRSPLTQEQLIPNLAMKEVIDAFISENGWVEDY
# B2: S20E/S24E: S20E/S24E combination mutant CHIP (protein, UniProt Q9WUD1 1-304, looked up, variant S20E S24E)
# E3 ubiquitin-protein ligase …: B1 E3 ubiquitin-protein ligase … with S20E
# B3: S20A/S24A: S20A/S24A combination mutant CHIP (protein, UniProt Q9WUD1 1-304, looked up, variant S20A S24A)
# E3 ubiquitin-protein ligase …: B1 E3 ubiquitin-protein ligase … with S20A, E24A
# B4: S24A: S24A mutant CHIP overexpressed in neonatal myocytes (protein, UniProt Q9WUD1 1-304, looked up, variant S24A)
# E3 ubiquitin-protein ligase …: B1 E3 ubiquitin-protein ligase … with E24A
# B5: CHIP-S20E: CHIP with serine 20 to glutamic acid phospho-mimetic substitution; recombinant protein, adenovirus-expressed, or knock-in mouse (protein)
# chain: MKGKEEKEGGARLGAGGGEPEKSPSAQELKEQGNRLFVGRKYPEAAACYGRVITRNPLVAVYYTNRALCYLKMQQHEQALADCRRALELDGQSVKAHFFLGQCQLEMESYDEAIANLQRAYSLAKEQRLNFGDDIPSALRIAKKKRWNSIEERRIHQESELHSYLSRLIAAERERELEECQRNHEGDEDDSHVRAQQACIEAKHDKYMADMDELFSQVDEKRKKRDIPDYLCGKISFELMREPCITPSGITYDRKDIEEHLQRVGHFDPVTRSPLTQEQLIPNLAMKEVIDAFISENGWVEDY
# modifications: left off: small tags and cut ends
# notes: CHIP with serine 20 to glutamic acid phospho-mimetic substitution; recombinant protein, adenovirus-expressed, or knock-in mouse
# B6: CHIP-WT: wild type carboxy terminus of Hsc70-interacting protein (CHIP), recombinant or adenovirus-expressed (protein)
# chain: B5 chain with E19S
# modifications: left off: small tags and cut ends
# B7: CHIP-K31A: CHIP Lys 31 (K30 in humans) to Ala mutant that abolishes CHIP chaperone interactions (protein)
# chain: B5 chain with E19S, K30A
# modifications: left off: small tags and cut ends
# Tests used:
# TTR-V122I [1] = test: TTR abundance in hiPSC-CMs by western blot; assay type: cell-based, human; conditions: TTR-V122I 5 μM; for TTR accumulation: Ad-Chip 10 MOI; for TTR accumulation with Lamp2A knockdown: siLamp2A 100 μM
# Method: (§1) Human induced pluripotent stem cell derived cardiomyocytes (hiPSC-CMs) were infected with Ad-Chip WT, SE, or SA (10 MOI), in the presence or absence of protein kinase G (PKG) stimulation via cGMP (100 mM) and exposed to media containing TTR-V122I (5 μM) or control for 14 days. Cells were lysed and TTR abundance was determined by western blotting for TTR with a total protein stain used to show equal loading.
# as §1, with “Lamp2A knockdown” for “protein kinase G (PKG) stimulation”, “siRNA (siLamp2A, 100 μM)” for “cGMP (100 mM)”, “loading. Knocking down Lamp2A removes the method of protein degradation known as chaperone mediated autophagy (CMA).” for “loading.”
# CHIP pS20 = test: Immunoblot for phospho-S20 CHIP in myocytes; assay type: cell-based, rat; conditions: cardiomyocytes; cGMP or SIL; DT3 1 μM
# Method: (§2) Tissue and cultured cardiomyocytes were lysed in 1× lysis buffer (Cell Signaling Technology), protein concentration was measured by bicinchoninic acid assay (Pierce), and extracts were subjected to SDS-PAGE using Novex Tris-Glycine Gels (4-20% gradient gel, Life Technologies) or Mini-protean TGX Gels (4-20% gradient gel, Bio-Rad), transferred to nitrocellulose membranes, and probed with various primary antibodies (CHIP (#2080S), Hsc70 (#8444S), p-CHIP S20 (Custom antibody, AbMart Inc., Shanghai, China; Project: 25011-1), Myc (#2276S), GAPDH (#2118S), and α-tubulin (#3878S) (Cell Signaling) and ubiquitin antibody (#SAB4503053) from Sigma), and fluorescence-labeled secondary antibodies (Licor, #926-32211, 926-32210, 926-68023, or 926-68022). Gels were imaged (Odyssey, Licor) and band intensity quantified (Odyssey Software 3.1).
# Human CHIP peptide fragments containing amino acid residues 13-30 were incubated with cGMP/PKG and assayed by MS. […] Phosphorylation was also observed at neighboring S24 and S26, but only when a S20A CHIP mutant was used (FIG. 2D). This indicates the primary target for PKG on CHIP is at S20. A monoclonal phospho-antibody generated against the S20 site in CHIP was tested in vitro with recombinant PKG1α and CHIP, verifying a consistent phospho-S20-CHIP signal. Use of a CHIP-S20A mutant CHIP confirmed specificity (FIG. 2E).
# [2] = system: neonatal rat cardiomyocytes (NRCMs)
# Method: After overnight culture, subsets of NRCMs were infected with adenovirus (AdV) containing a FLAG-tagged PDE5, FLAG control, Myc-tagged CHIP WT or K31A (provided by Dr. Cam Patterson), S20E or S20A (Welgen Inc., Worcester, MA). Forty-eight hours after infection, cells were exposed to either simulated ischemia (SI) or normal conditions. SI involved incubating cells in DMEM containing deoxyglucose (20 mM), NaCl (125 mM), KCl (8 mM), KH2PO4 (1.2 mM), MgSO4 (1.25 mM), CaCl2) (1.2 mM), NaHCO3(6.25 mM), sodium lactate (5 mM), and HEPES (20 mM) with a pH of 6.6. Cells were then placed in an incubator chamber (Billups-Rothenberg) with 95% nitrogen, 4% carbon dioxide, and 1% oxygen. Normoxic controls were incubated in DMEM supplemented with 10% FBS in air composed of 95% carbon dioxide and 5% oxygen. RNA or protein was harvested after 48 hours of SI. Cells were also treated with sildenafil (1 μM) or vehicle, or small interference RNA (siRNA, 100 pM) specific for rat Stub1 (Qiagen, Cat. #: SI01532251) or scrambled control provided 24 hours after plating and transfected with Xfect (Takara) per manufacturer protocol.
# Lactate dehydrogenase (LDH) leakage and (3-[4,5-dimethylthiazol-2-yl]-2,5-diphenyltetrazolium bromide) (MTT) were assessed in cultured cardiomyocytes and media after SI from the same culture dish. LDH was assayed by commercial assay (Roche) following manufacturer's protocol, read in 96 well microplates on a Spectramax M5 (Molecular Devices) at 490 nm absorbance. For MTT, cells were washed in phosphate-buffered saline, MTT (Sigma-Aldrich) working solution added to the culture dish, incubated at 37° C., solubilized with acidic isopropanol, transferred to a 96 well plate, and read at 570 nm with background subtraction at 650 nm on a Spectramax M5.
# TTR-V122I [3] = test: TTR abundance in cardiac fibroblasts by western blot; assay type: cell-based; conditions: neonatal rat cardiac fibroblasts, WT or SA 10 MOI, SE 0, 2.5, 5 or 10 MOI, TTR-V122I 5 μM, 14 days
# Method: Fibroblasts were isolated from neonatal rat hearts and infected with Ad-Chip WT or SA (10 MOI) or SE (0, 2.5, 5, or 10 MOI) and exposed to media containing TTR-V122I (5 μM) for 14 days. Cells were lysed and TTR abundance was determined by western blotting for TTR with a total protein stain used to show equal loading.
# Hsc70 = target: T1, Hsc70 (Rattus norvegicus, UniProt P63018); test: CHIP-Hsc70 co-immunoprecipitation from myocyte lysate; assay type: cell-based; conditions: myocytes with or without SI, Hsc70 as bait
# T1 construct: lysate from myocytes with or without exposure to SI were immunoprecipitated using Hsc70 as bait; endogenous in cells; host or cells: neonatal rat cardiomyocytes infected with adenovirus for Myc-tagged CHIP WT, S20E or S20A
# Method: as §2
# To test whether thermodynamic stabilization of CHIP-HSC70 due to S20 phosphorylation enhances protein binding, lysate from myocytes with or without exposure to SI were immunoprecipitated using Hsc70 as bait. […] Reduced CHIP-Hsc70 interaction was also observed in vivo following MI in hearts with PKG activation suppressed by mPDE5A/oe, whereas this was enhanced in WT hearts (FIG. 5C, FIG. 14B).
# Hsp70 (385-641) = target: T2, Hsp70 (385-641) (Homo sapiens, UniProt P0DMV8); test: Isothermal titration calorimetry of CHIP-Hsp70 binding; conditions: ITC, 25° C.; for enthalpy (DH) / entropy (DS): triplicate, average ± SD
# T2 construct: Hsp70 (385-641)
# Method: Isothermal titration calorimetry was carried out using a TA Instruments NanoITC equilibrated at 25° C. and utilizing a stir speed of 600 rpm. Experiments were conducted in triplicate and data represents the average±one standard deviation. Titrations utilized 350 μM WT or S20E CHIP titrated into 50 µM Hsp70 (385-641) as a series of twenty four 2 μL injections.
# myocardial infarction = test: Myocardial infarction by coronary ligation in CHIP S20E knock-in mice
# Description: Male and female mice (aged ˜3-4 months) were subjected to transmural myocardial infarction by mid left anterior descending artery ligation under open thoracotomy (25). Controls underwent open chest surgery and LAD isolation without ligation. Data obtained 1-week after infarction included 2D echocardiography (Vevo2100, 20-MHz; Visualsonics) in conscious mice to measure LV volume and ejection fraction, with analysis blinded to study group.
# Myocardium was fixed in 4% paraformaldehyde, paraffin embedded, and sectioned into 4 μm slices, and stained with Masson's Trichrome. Fibrosis was quantified by color-based pixel count and intensity in parallel sections of the ischemic and remote areas (Aperio Image Scope). Transmural infarct size was estimated as the arc angle subtended by dense scar in a mid-MI cross section divided by 360° and expressed as percent. Immunostaining for ubiquitin (Sigma) and CHIP (Cell Signaling) was performed using AlexaFluor 488 conjugated secondary antibodies following the manufacturer's protocol. Counterstain was performed using DAPI (Invitrogen) and Troponin-T (Thermo Scientific) antibodies. Image acquisition was performed on a Leica confocal microscope (TCS SPE II) at 40× magnification.
# [4] = target: T3, Hsp40-stimulated ATPase activity of Hsc70 (Homo sapiens, UniProt P11142); test: Chaperone refolding ATPase activity assay; assay type: biochemical; conditions: CHIP 0.5-6 μM, Hsc70 0.5 μM, Hsp40 0.25 μM
# T3 construct: His-tag (N); made in house; host or cells: E. coli BL21(DE3)
# Method: Human HSP40 (DnaJB1), human CHIP and CHIP point mutants in pET30a with a C-terminal His-tag and hHsc70 (HSPA8) wild type with an N-terminal His-tag in pCOLA-Duet1 were expressed in BL21(DE3) and purified on Ni-NTA (Qiagen). Hsc70 and CHIP proteins were induced and expressed for 22 hours at 18° C. Hsp40 protein was induced and expressed for 5 hours at 25° C. Required stock solutions of proteins were prepared by diluting high concentrated stocks in protein storage buffer into protein storage buffer, 20 mM HEPES (pH7.4), 150 mM NaCl. Hsc70 and Hsp40 were used at a concentration of 0.5 μM and 0.25 μM, respectively, with a gradient of CHIP protein concentrations (0.5-6 μM). Hsp40-stimulated ATPase activity of Hsc70 was measured using fluorescent polarization with the […]® ADP2 FP Assay (BellBrook Labs, 3010-1K) on a Clariostar plate reader (BMG) in 384 well black, non-binding plates (Greiner, 784900). Optimized instrument settings were used: Excitation wavelength. 590 nm; Emission wavelength: 675 nm; Required value: 5%; Target mP: 20; Gain A: 1824; Gain B: 1854; Focal Height: 12.4 mm. Values of μM ADP formed in the reactions were interpolated from an ATP/ADP standard curve run in parallel.
# [5] = 14 days, no Lamp2A knockdown (Example 8)
# T2 sequence (P0DMV8 385-641): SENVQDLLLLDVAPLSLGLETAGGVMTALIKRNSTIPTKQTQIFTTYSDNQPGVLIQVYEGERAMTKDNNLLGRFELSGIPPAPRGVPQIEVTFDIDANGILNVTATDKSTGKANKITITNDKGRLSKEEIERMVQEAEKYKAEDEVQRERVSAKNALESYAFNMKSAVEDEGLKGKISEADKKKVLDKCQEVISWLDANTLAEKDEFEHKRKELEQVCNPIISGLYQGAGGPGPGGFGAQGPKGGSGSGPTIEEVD
# T3 sequence (P11142 whole entry): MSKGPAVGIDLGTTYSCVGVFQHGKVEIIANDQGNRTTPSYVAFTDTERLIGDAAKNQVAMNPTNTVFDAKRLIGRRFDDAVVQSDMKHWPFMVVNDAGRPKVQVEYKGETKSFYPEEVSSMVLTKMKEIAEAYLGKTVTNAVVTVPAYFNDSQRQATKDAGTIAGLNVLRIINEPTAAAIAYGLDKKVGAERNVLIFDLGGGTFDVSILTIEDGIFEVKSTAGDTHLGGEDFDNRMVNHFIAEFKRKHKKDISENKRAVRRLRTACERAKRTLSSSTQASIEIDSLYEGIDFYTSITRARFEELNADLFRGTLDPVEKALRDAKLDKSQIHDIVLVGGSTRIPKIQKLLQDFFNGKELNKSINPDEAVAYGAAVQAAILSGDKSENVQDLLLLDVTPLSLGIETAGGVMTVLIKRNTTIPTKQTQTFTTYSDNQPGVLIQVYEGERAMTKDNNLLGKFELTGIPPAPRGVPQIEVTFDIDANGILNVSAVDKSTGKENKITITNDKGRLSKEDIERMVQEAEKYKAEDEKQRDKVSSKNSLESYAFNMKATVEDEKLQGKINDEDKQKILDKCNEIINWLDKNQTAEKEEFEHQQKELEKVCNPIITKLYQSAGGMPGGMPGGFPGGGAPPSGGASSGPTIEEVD
molecule,measurement,setting,value
"Nc1nc2c(ncn2[C@@H]2O[C@@H]3COP(=O)(O)O[C@H]3[C@H]2O)c(=O)[nH]1 [cGMP, cyclic guanosine monophosphate, reference compound]",TTR accumulation with PKG stimulation,"TTR-V122I [1]; cGMP 100 mM, 14 days",reduce TTR accumulation in Chip WT cells but not in Chip SA cells
same,CHIP pS20 level,CHIP pS20,CHIP pS20 increased
B1,SI-induced cytotoxicity (LDH/MTT ratio),[2],no significant impact on the cytotoxic response to SI or SI+SIL
B2,SI-induced cytotoxicity (LDH/MTT ratio),[2],very similar to those with S20 mutations alone
B3,SI-induced cytotoxicity (LDH/MTT ratio),[2],very similar to those with S20 mutations alone
B4,SI-induced cytotoxicity (LDH/MTT ratio),[2],no significant impact on the cytotoxic response to SI or SI+SIL
B5,TTR accumulation,TTR-V122I [3],cleared by Chip SE expression in a dose-dependent manner
same,TTR accumulation,TTR-V122I [1]; 14 days (Example 7),cleared
same,TTR accumulation,TTR-V122I [1]; [5],cleared
same,TTR accumulation with Lamp2A knockdown,TTR-V122I [1]; 14 days,removed the protective effect
same,co-precipitation of CHIP and Hsc70,Hsc70,confirmed
same,increase of Hsp70 affinity as compared to CHIP-WT,Hsp70 (385-641),59%
same,more negative enthalpy as compared to CHIP-WT,Hsp70 (385-641),1.34 kcal/mol
same,enthalpy (DH),Hsp70 (385-641),-7.67 ± 0.22 kcal/mol
same,entropy (DS),Hsp70 (385-641),2.34e-06 ± 8.84e-07 kcal/mol
same,Kd,Hsp70 (385-641); read-out: increase of Hsp70 affinity as compared to CHIP-WT,~500 nM
same,accumulation of ubiquitinated proteins after MI,"myocardial infarction; knock-in mice vs littermate controls, peri-infarct zone",less accumulation of ubiquitinated proteins
same,mortality after MI,myocardial infarction; male homozygotes and heterozygotes vs littermate controls,lower mortality
same,infarction size after MI,myocardial infarction; male knock-in mice vs littermate controls,reduced infarction size
same,heart function after MI,"myocardial infarction; male knock-in mice vs littermate controls, echocardiography",improved heart function
B6,TTR accumulation,TTR-V122I [3],TTR accumulated
same,TTR accumulation,TTR-V122I [1]; 14 days (Example 7),TTR accumulated
same,TTR accumulation,TTR-V122I [1]; [5],TTR accumulated
same,TTR accumulation with Lamp2A knockdown,TTR-V122I [1]; 14 days,exacerbated the accumulation of TTR
same,co-precipitation of CHIP and Hsc70,Hsc70,confirmed
same,inhibition of Hsp70 ATPase activity,[4],dose-dependently inhibited
same,enthalpy (DH),Hsp70 (385-641),-6.31 ± 0.789 kcal/mol
same,entropy (DS),Hsp70 (385-641),6.09e-06 ± 1.98e-06 kcal/mol
B7,inhibition of Hsp70 ATPase activity,[4],an effect that was lost
